In US20240287168A1 (SHANGHAI JEMINCARE PHARMACEUTICAL, published 2024):
Numbering of substitutions follows the chain as printed. Names may count otherwise. One block for each binder: values may come before it.

What was measured:
[1] = biological target: T1, Biotinylated Human VEGF165 (ACROBiosystems, Cat. No. VE5-H82Q0) (human, UniProt P15692-4 27-191, biotinylated (site not stated)); assay: flow cytometry, yeast-displayed clone, 1 nM Human VEGF165-Biotin
T1 construct: Bought reagent; also called Human VEGF-Bio; human VEGF165-Bio

[2] = biological target: T1, Biotinylated Human VEGF165 …; assay: flow cytometry, yeast-displayed clone, 1 nM Human VEGF165-Biotin; ratio of binding MFI and displaying MFI
[3] = biological target: T1, Biotinylated Human VEGF165 …; assay: BLI (Octet RED96e), antibody captured on AHC sensor, 100 nM VEGF165, 1:1 fit
Protocol: (§1) The antigen and antibody were both diluted with 1×PBST (1×PBS: Sango Biotech, B548117-0500; 0.02% Tween 20: sigma-alorich, P1379), the antigen was used at a concentration of 100 nM, and the antibody was used at a concentration of 50 nM.
(§2) (2) On-board detection of samples (Octet Data Acquisition 11.1.0.11): First, the samples were added to a 96-well plate (Greiner bio-one, 655209), and the system was 200 μL/well. Then the software parameters were set, the plate temperature was set to be 30° C., and the frequency of collecting the standard kinetic signal was 5.0 Hz. Next, the AHC sensor (Fortébio, Cat. No.: 18-0015) was pre-wetted with 1×PBST for 10 minutes, and then detected on the machine. Each cycle consists of the following steps: 1) immersion in the buffer for 60 seconds; 2) detection of whether there is a non-specific binding between antigen and sensor; 3) regeneration of 10 mM glycine solution with pH 1.7; 4) immersion in the buffer for 60 seconds; 5) immobilization of the antibody on the sensor for a time of 20 seconds; 6) immersion of the sensor in the buffer for 180 seconds; 7) binding of the antigen to the antibody for a time of 180 seconds; 8) dissociation of the antigen and the antibody for 10 minutes; 9) sensor regeneration.
Fortebio's Data Analysis 11.0 software was used to measure the binding rate (Ka) and dissociation rate (Kd) of the antigen-antibody in a 1:1 binding mode, and then the equilibrium dissociation constant (KD) of the antibody was calculated.

[4] = biological target: T1, Biotinylated Human VEGF165 …; assay: competitive ELISA: antibody titrated with biotinylated human VEGF165 on coated human VEGFR2, SA-HRP, OD450; blocked interaction VEGF165-VEGFR2
Protocol: (§3) A competitive ELISA method was used to determine the activity of the single domain antibody in blocking the binding of VEGF165 to human VEGFR2. […] The next day, the plate was washed 3 times with washing solution PBST (0.05% TWEEN-20: sigma-alorich, P1379), and then the blocking solution PBST+2% BSA (BSA: VWR, 0332-1 KG) was prepared using the washing solution, with 300 μL of blocking solution added to each well, blocked at 37° C. for 1 hour. […] The plate was washed three times with the washing solution, the secondary antibody SA-HRP (sigma, S2438) was diluted 1:5000 with the blocking solution, added to the ELISA plate according to 100 μL/well, and incubated at 37° C. for 1 hour. The plate was washed 3 times with the washing solution, 100 μL of TMB chromogenic solution (Biopanda, Cat. No.: TMB-S-003) were added to each well, and developed color at room temperature in the dark, and then 50 μL of stop solution (Solarbio, Cat. No.: C1058) were added to each well to stop the reaction, and the absorbance was measured at a wavelength of 450 nm.

[5] = biological target: T1, Biotinylated Human VEGF165 …; assay: BLI (Octet RED96e), method of Example 4, antibody on AHC sensor
Protocol: as §1, §2

[6] = biological target: T1, Biotinylated Human VEGF165 …; assay: BLI (Octet RED96e), method of Example 4, antibody on AHC sensor, 1:1 fit
Protocol: as §1, §2

[7] = biological target: T1, Biotinylated Human VEGF165 …; assay: competitive ELISA: antibody titrated with biotinylated human VEGF165 (formulated at 700 ng/ml) on coated human VEGFR2, SA-HRP, OD450; blocked interaction VEGF165-VEGFR2
Protocol: as §3

irrelevant antigen = assay: flow cytometry, yeast-displayed VHH, 10 nM irrelevant antigen, streptavidin-PE (Protocol 3, non-specific binding level)
[8] = biological target: T1, Biotinylated Human VEGF165 …; assay: BLI (Octet RED96e), antibody captured on AHC sensor, 100 nM VEGF165
Protocol: as §1, §2

T1 sequence (P15692 other isoform, or with tags, fused parts or gaps limits assumed): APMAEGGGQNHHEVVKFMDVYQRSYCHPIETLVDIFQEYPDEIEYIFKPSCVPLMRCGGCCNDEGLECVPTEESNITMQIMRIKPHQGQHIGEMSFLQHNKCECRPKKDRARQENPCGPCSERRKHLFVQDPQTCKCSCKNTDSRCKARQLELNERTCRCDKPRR

Binding MFI [1]: 42.1 MFI
Binding force [2]: 11.7
B1: Ab1910VE9 parental sequence displayed on the surface of yeast (VHH)
VHH: EVQLVESGGGLVQPGGSLRLSCAASGSTSDIVSMAWYRQAPGKERELVSAVFAEDWRYVEDSVKGRFTISRDNSKNTVYLQMNSLRAEDTAVYYCNVRLRITDERRRERLDYWGQGTLVTVSS
notes: also called clone number Ab1910VE9

Kd [3]: 9.91 nM
koff [3]: 0.0181 s⁻¹
kon [3]: 1.82e+06 M⁻¹ s⁻¹
IC50 [4]: 4.67 µg/mL
B2: Ab1910VE9 (Hz20A6.3 humanized VHH fused with IgG1 Fc N297A) (Fc fusion)
VHH: B1 VHH
notes: Expressed in ExpiCHO cells; not shown: IgG1 Fc N297A (purchased from Taizhou Biointron Inc.)

Response value [5]: 0.142
Kd [6]: 2.23 nM
koff [6]: 0.00403 s⁻¹
kon [6]: 1.81e+06 M⁻¹ s⁻¹
IC50 [7]: 0.88 µg/mL
B3: Ab1910VE18 (expressed single domain antibody with the Ab1910VE9 parent sequence, molecule before affinity maturation) (VHH)
VHH: B1 VHH
notes: Its theoretical pI (7.5) differs from that of Ab1910VE9 (7), so it is kept apart from Ab1910VE9

Binding MFI [1]: 337 MFI
Binding force [2]: 98.2
B4: YC41D1, affinity-matured mutant clone of Ab1910VE9 displayed on yeast (VHH)
VHH: B1 VHH with F52L, E54P, D55G, R57S
notes: also called antibody number Ab1910VE21

Response value [5]: 0.116
Kd [6]: 0.728 nM
koff [6]: 0.00104 s⁻¹
kon [6]: 1.43e+06 M⁻¹ s⁻¹
IC50 [7]: 1.24 µg/mL
B5: Ab1910VE23 (expressed affinity-matured single domain antibody, clone YC43H2) (VHH)
VHH: B1 VHH with T102P, D103H, E104Q, R105W, R107T

Response value [5]: 0.153
Kd [6]: 0.626 nM
koff [6]: 0.000857 s⁻¹
kon [6]: 1.37e+06 M⁻¹ s⁻¹
IC50 [7]: 0.623 µg/mL
B6: Ab1910VE24 (expressed affinity-matured single domain antibody, clone YC43B1) (VHH)
VHH: B1 VHH with E104W, R105Y, R106S

Kd [3]: 10.5 nM
koff [3]: 0.0184 s⁻¹
kon [3]: 1.75e+06 M⁻¹ s⁻¹
IC50 [4]: 4.18 µg/mL
B7: Ab1910VE8 (Hz20A6.2 humanized VHH fused with IgG1 Fc N297A) (Fc fusion)
VHH: B1 VHH with Q115K, L118T
notes: as for B2

Response value [5]: 0.154
Kd [6]: 0.413 nM
koff [6]: 0.00051 s⁻¹
kon [6]: 1.24e+06 M⁻¹ s⁻¹
IC50 [7]: 0.42 µg/mL
B8: Ab1910VE21 (expressed affinity-matured single domain antibody, clone YC41D1) (VHH)
VHH: B1 VHH with F52L, E54P, D55G, R57S

Binding MFI [1]: 358 MFI
Binding force [2]: 129
B9: YC43H2, affinity-matured mutant clone of Ab1910VE9 displayed on yeast (VHH)
VHH: B1 VHH with T102P, D103H, E104Q, R105W, R107T
notes: also called antibody number Ab1910VE23

Binding MFI [1]: 503 MFI
Binding force [2]: 114
B10: YC43B1, affinity-matured mutant clone of Ab1910VE9 displayed on yeast (VHH)
VHH: B1 VHH with E104W, R105Y, R106S
notes: also called antibody number Ab1910VE24

Irrelevant antigen binding signal (PE MFI) (irrelevant antigen): 21.8 MFI
B11: Y20A6, anti-human VEGF165 single domain heavy chain antibody clone displayed on yeast (VHH, not shown: large carriers; small tags and cut ends)
VHH: AVQLVESGGGLVQAGGSARLSCAASGSTSDIVSMAWYRQAPGKERDLVAAVFAEDWRYVEDSVRGRFTISRDNTKNTVDLQMNNLKPEDTAIYYCNVRLRITDERRRERLDYWGQGTQVTVSS

Response value [8]: 0.442
Kd [3]: 6.3 nM
koff [3]: 0.00888 s⁻¹
kon [3]: 1.41e+06 M⁻¹ s⁻¹
IC50 [4]: 0.516 µg/mL
B12: Ab1910VE6 (Y20A6 VHH fused with IgG1 Fc N297A; original antibody before humanization) (Fc fusion)
VHH: B11 VHH
notes: as for B2
